assay: soluble on expression in E. coli; label from the status in PepcDB or PDB records

Sequence | soluble on expression in E. coli
MPYLNCDTITGDFHFQMIRFARAMEVGDKLTMKGKIMNPANMSYLHLYQGFNSVYEKSPLSLHIRVQYLRNSIIYNSWFGSWGGEQFSQQPFLSGNYYSISVLKGPTYYSIYMGNLLITKYAFRNPANWQIGNLLGYGDWTVTSVSMTCVRPGVPTTPDPKATTTPTPTTTKAQNIIAEDPNGGQLGGGELVVTNPGSVGSGSGNSGNSSNNNNSSGNSNYGSNNSGSGNGNSNSGNGNSGNGNGNNAGNSGNGNGNSNGNNGNGSNGNGNGNNGNGNNGNNGNGHPQYPYPVPPHGYYPPGYPYPPGYPYPPPGAFYYPPGGIPQNGMNGQNGNGQPNIIVINSGGNKKRNRGGNLRPQFDVDLDGDEDEEC | not soluble
MNRDIGKNAERELVSILRGEGFNAVRIPTSNSSPNPLPDIFATKGNTLLSIECKSTWENKVKVKEHQVRKLLDFLSMFTMKGVPLIAIKFKQVHEWRVLVPEKAEDIIVTIDNSIPIEDLFKILEKRIEEKILTP | soluble
MASQLLINDSKYGFLKELGLTENNAGVFHGKWAASGQVVQSFAPANNSPIANVQNGNVQDYEIAISEAKKAYNDWCEVPAPRRGEIVRQIGDKLRTQLQNLGKLVSLEMGKISAEGVGEVQEYVDICDYATGLSRSLEGKIFPSERPGHALLEQWNPLGVVGVISAFNFPCAVYGWNNALALVTGNSVVWKPAPSTPLTAIAVTKLVEEVLVANNVNPALCSLVCGEGDVGQALVKDKRVNLVSFTGSSEIGKIVGQQVQARFGKLLLELGGNNAIIVNEDADLNMVVPATVFAAVGTAGQRCTTTRRLIVHDKVYDQVLERLKKAYAQFESRIGCPLDSNTIIGPLHNQQAVGKYKASVAEAVASGGKIEYGGKVLERDGNFVLPTIVTGLKHDSPVVLRETFAPILYVLKFSTLEEAIAINNEVDQGLSSSLFTTNIQNVFKWMGPKGSDCGIVNVNIPTSGAEIGGAFGGEKETGGGRESGSDSWRQYMRRSTCTINYSKELPLAQGIKFE | not soluble
MGLSCTDDWRVIDLPGSFITVTNLNQFTLNGDGFAARMEMTLVAPDHGGDSDLIAMGELIEQAISGVRSLGGAIESIELNQQVTPPHGGKAPASTMTFTLFYDMENEE | not soluble
MGSDKIHHHHHHMRRGELNERRDAIIRLLCAQDELSAQDLAARLNVSVQTIRTDLRELDEAALVQRRHGRVRLRQPSENIGYAPRMSVARSEKQQIAMAVKPMIEDGSRVALGTGTTVEACARQLAASHRDLFVATNNIHAVIALQGASGVSVSLAGGAVRLRDLDFVGAASRAFFADYMVDIAIFSCGGLSLSGDVLDYNTDEIAAREAISTCATRRVLVVDREKFGRALPCRKHMIWDYDVVVTGADFPREIMRKCQEAGCEVLRVATDERPLRA | not soluble
MGSDKIHHHHHHMIIMTYYTFVKPFFIKAVTHLHVSSGTSVEEEVDLPFQRDELNYPTIFASSLKGAIKSFLLKEYSNAREIIYKVLGSDENPDEASLGSFLDAVLFAIPARSIGVSGLDEAWVYVTTYELLRKVKSLLESMNTLSATQFTSLLDAINNILQESKNLIISDNAASVILNEDFYVELSNIQNEYIQSLLGDMLIENSTYNQSNQNSQSQGNHLVKPLIVLKDSIGREVINRSLIRVRRIKIKRSSKTVEEGGLWSEEYVPVNSLFFSSFLARGSKDTAYFADCILRKTRYLILGGKETIGKGIVELRWLND | not soluble
MQFSTTPTLEGQSIVEYCGVVTGEAILGANIFRDFFAGIRDIVGGRSGAYEKELRKAREIAFQELGEQAKALGADAVVGIDIDYETVGKDGSMLMVSVSGTAVKTRR | not soluble
MDNHAEAHWQNGWLQSIRHTPSPNFSPRETGETVSLIVLHNISLPPFEYGTDAVEKLFANRLDPDGHPFFSLIHTLRVSSHFLIKRDGETVQFVSCDNMAYHAGVSSFGGREKCNAFSIGIELEGCDFEPFAEAQYRSLEALLDAICRHYPVTAVTGHQDIAPGRKTDPGHFFDWRRIREKGFLVDRNAV | not soluble
MAHHHHHHMFSRHSLWVPAASHFPKFVEHFNRFLKASPHNVELQKALCYKEEETQLLIIQDPKARQPIFAMAFPFTVTSALCDGSRMGLGTFTSLVDTTTSLHVAAALLPTNDMHVSVSLQTNCVQPITAGEKVVMISRMDKFGKRLAFLSARLLRLDDVYENTVAPTAGRELEELERQLSQYQTLANGTHVKCILTGKS | not soluble
MSLAQFYSAKRRTTTRQIITVSVNDLDSFGQGVARHNGKTLFIPGLLPQENAEVTVTEDKKQYARAKVVRRLSDSPERETPRCPHFGVCGGCQQQHASVDLQQRSKSAALARLMKHDVSEVIADVPWGYRRRARLSLNYLPKTQQLQMGFRKAGSSDIVDVKQCPILAPQLEALLPKVRACLGSLQAMRHLGHVELVQATSGTLMILRHTAPLSSADREKLERFSHSEGLDLYLAPDSEILETVSGEMPWYDSNGLRLTFSPRDFIQVNAGVNQKMVARALEWLDVQPEDRVLDLFCGMGNFTLPLATQAASVVGVEGVPALVEKGQQNARLNGLQNVTFYHENLEEDVTKQPWAKNGFDKVLLDPARAGAAGVMQQIIKLEPIRIVYVSCNPATLARDSEALLKAGYTIARLAMLDMFPHTGHLESMVLFSRVKEGHHHHHH | soluble
MDHFIKLLPKLTPHLRKGDCGKMGVIGGSLEYTGAPYFAASSASRLGADLIHIFCDPDAAQVIKGYSPDLIVHPGMTANSIIPKLSRMDAIVIGPGLGRNPNIWPLMQELFEFVRNRDVPFVIDGDGLWFVSEHIEKFPRQMSATVLTPNIVEFSRLCKSALGEEDVLNVRNNSQLQHLAAELSRKMNVTIYLKGEVDLVVTPNGEVSKCSTESSLRRCGGQGDVTAGSLGLFLYWAKKNLGDDWTSAHHEAGIASSWLVRTAGRRAFEKHGRSMNTPLLLDEIPKLVRDVETREMKDTVHTDSSKH | not soluble
MAHHHHHHMKPSSISGEAPPLAVVGGNCSVFGFDRFGAERYWTVTGDQVTAMALMPWTSVSDSGSAPLSLLVASDDFEVRVYDGEEAIATVHEVDRVQKLVPLWQPSRNLDTETAAADSAGRYAYLLENGTVGMYERGERVWRVRGKSVPVSAAFCDVDGDGVAELVIGWSNGRVEVRTDRGGGLEKGGSVLFRDTYSSAVAAVLSEDYRQDGVPLPVICTVDGTVRGLTLLETRKDEAAEVRQLQVLEALVQEKQQLAAQLTSLEEQLARRAAGAQDTTMPESGVEVRCCCSANLATKHVEVHVEVTGPAAKRGDIVVHSCLLQCEIWATAAEQDTIAFANAEPSTTLVCSFAHADDLPLNVSASVAVGPAFGDSYRIHEVTVRVPRFVMYQLPYTIPPEQQRQRQGKTVTYQQPDGCVLLQWRELLRLDVIERWLRHSFCVPEDVALLDANAPTDPVLHLELIHVRDGSSFGIEVRNAAASGAAFNTITLWSDHLAPCGAVIDAFVEDLKGGWADGRADPVAVRCEMPLELERLRAIFARVDEFNEVRMKLTTDMADAATVVKTLLGRAEDARLLGDMASMKKSYAVLYDVDQELLCENAKRINNYEELKLALKEVNTCIQQAGMVRIGPARAQLIASCRNALKENQVNSLLEIIRTGSE | not soluble
MTVSPIDPVKLEKLAEVAIKVGLQLQKDQDLVITAPLAALPLVRLLTKHAYIAGGGLVTTFYSDEETTLSRYRHASDANFDRASGWLYEGMAKAYANGAARLAIAGDNPMLLAEEDPAKVARANKANSTAYKPALEKISNFDINWNIISYPNPSWAKQVFPGLTEDEAVRKLADAIFAASRVDVADPVAAWAQHNANLAKRSAWLNGERFSALHFTGPGTDVKIGLADGHEWHGGASMAKNGVTCNPNIPTEEVFTTPHALRVDGYVSSTKPLSHQGTLIDDIQVKFEAGRIVEAKASKGEAVLNKVLDTDEGARRLGEVALVPHSSPISASGILFYNTLFDENASCHIALGQCYSKCFLDGASLSQDQIKAQGGNSSLIHIDWMIGSNKVDIDGVKPDGSTVPVMRKGEWA | not soluble
MNFYSLSVFIALVFSFNAADGHRCHRRGNGGFSKIFDKSTIQKIVPFFLIKIQNQNKNNIF | not soluble
MSDISEKFWDASIEELKKGYVFDEEKEEYICLACGETFIKGVIYQDNQILYEAEKFVQLHIQNEHTSMFDYLLNMDKKFTGLTDLQKKMVQFFHMGLNDKEIVKEMDGGSTSTIRNHRFTLREKMKQAKVFLALMELSEEKSKVQTKFVPIHRTATMVDDRYNITEEENDEVLKAHFTEGLDGPLSKFPKKQKRKLIILRHLVKKFDSNKKYTEKEVNTVIENVYPDFVTLRRYLIEYGFLDRTADGSQYWVKL | not soluble
RSDTTIVATVNPRDKQTTLVSLARDTYVDIPGQGKQDKLNHAYAFGGASLAMDTVENYLNIPINHYVSINMAGLKELVNAVGGIEVNNNLTFSQDGYDFTIGKISLDGEQALSYSRMRYEDPNGDYGRQERQRKVIEGIVQKVLS | not soluble
DADPTFDFIGYLETLPQTSGMYMGNASIIPRNYRKYLYHAYLAYMEANGYRNVLSLKMFGLGLPVMLKEYGLNYEKRHTKQGIQTNLTLKEESYGDWLPK | soluble
MAELISFVVPTQSDKVLLVWDLSTGPPAEALSHSLFTVFSQFGLLYSVRVFPNAAVARPGFYAIIKFYSSRDAQRAQKACDGKPLFQTSPVKVRLGTRHKALQHQAFALNSSRCQELANYYFGFSGWSKRIIKLQELSGLEDAALAVPMQKGSPQFLCAVEVVLPPYGCRSPGVGISEEPLRQLEEGQSSFLMKRKTAQKLAFQAAVSDAFQKLTIVVLESGRIAVEYRPTAEDLDARSEEELQNLIQVSCSSWSQSSQREEECLSDFSLEEEDLKLCDPH | soluble
MGSDKIHHHHHHMLSHETIWNAIDRLAEQYHLTPSGLARKAGLDPTSFNKSKRVGPDGRMRWPSTESIAKVLEATGARIDQFVTLISNDNHQVNAVHETLPDGNFPPQIGTIPLLGLAQAGSGGFFDDGGFPAGQGWDLVDLPTSAKPGVYALEIQGDSMKPLYRDGDILIVEPGAPVRRGDRVVVKTCDGEVMAKVLGRQTARTVDLISINPDHPNRVLDMQDVEWIARIIWVSQ | not soluble
MKPVQLTVDNIAKAIFTVNRHAKTALNPSFLYLLKKKAIEKLLEEGKAKKVGLHFSRNPKYSQQQSDVLVAVGDYYFHIPPTKQDFAALPHLGSLNDSYRNPPARMPLSEAKAILIAYTGLREKPEQKPKRLTRPVFKRLGDRY | not soluble
MSLHEASIALALIDVAGDVLREHGAARASALTVRVGQWSSVVPEALAAAFPACAEGTPLAGARLSIERVPGVGECPQHGPVELEVWRGLRCPLCGAPTPRLLQGDELELDQLELDQLELENLEGHHHHHH | not soluble
ILEQDLNDFMSTGAHGLDLYQLVVGGTAPMLNLVEKGKIPPPATTPEKAGMYELGVNFMAKHHMKQLSVNHWAVDNRERSLYNSLAKTYAE | not soluble
GFTPHDSAPYGALDMADFEFEQMFTDALGIDEYGG | soluble
MVSSAVKCGICRGVDGKYKCPKCGVRYCSLKCYKDAAKHVHKESEQPRAGTEANVEVVNNDKIINSSLAMNKTLKTKAFDDIYQNSAELQELLKYNTVKFHLAKVYRILSSTVNDGSSGKMNSDLQKELAVNYLNTLRYGGIHYNEAIEEFCQILLDKLNAVKK | soluble
MAEKSYTRFVINGKEQELKFCLQALRLLDENGGPMQFVSQTMQGGITNFTDVVYYALIHTNEGITYEAVQKEIENMFNAEKLDLDEILKYNKAVVLNSFFFQKTVKKLLGTMTAEQQKSFENLYA | not soluble

Source: the DeepSol protein solubility set
